Source: the supplement of paper PMC9112550, “Optimization of the antimicrobial peptide Bac7 by deep mutational scanning” (BMC Biology, 2022)

These sequences were tested on Escherichia coli TOP10 (assay: shrunken log2 fold change of peptide-encoding DNA abundance (4.5 h post-induction vs induction); higher = less antimicrobial activity (less host growth inhibition)). Conditions: time post-induction: 4.5 h; library: site-saturation at positions 5, 18, 19, 20.
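Also: peptides expressed intracellularly from a pBAD plasmid library in pooled LB shake-flask culture, induced with 0.3% L-arabinose, DNA abundance read by NGS, three biological replicates, DESeq2 with apeglm shrinkage.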

Question: For RRIRDRPPRLPRPRPRPGAHPRP, which “shrunken log2 fold change” value is on record?
Answer: 0.651

Question: With RRIRDRPPRLPRPRPRPGAIPRP as the sequence, how does the “shrunken log2 fold change” value read?
Answer: 0.271

Question: RRIRDRPPRLPRPRPRPGAMPRP was tested. Which “shrunken log2 fold change” value did it give?
Answer: 0.408

Question: How did the “shrunken log2 fold change” value turn out when RRIRDRPPRLPRPRPRPGCDPRP was run?
Answer: 0.79

Question: For RRIRDRPPRLPRPRPRPGCPPRP, which “shrunken log2 fold change” value is on record?
Answer: 0.0445

Question: Which “shrunken log2 fold change” value does the source give for RRIRDRPPRLPRPRPRPGDGPRP here?
Answer: 0.85

Question: For RRIRDRPPRLPRPRPRPGFGPRP, which “shrunken log2 fold change” value is on record?
Answer: 0.264

Question: RRIRDRPPRLPRPRPRPGFIPRP was tested. Which “shrunken log2 fold change” value did it give?
Answer: -0.202

Question: For RRIRDRPPRLPRPRPRPGFLPRP, which “shrunken log2 fold change” value is on record?
Answer: 0.368

Question: RRIRDRPPRLPRPRPRPGGTPRP was tested. Which “shrunken log2 fold change” value did it give?
Answer: 0.454

Question: Which “shrunken log2 fold change” value does the source give for RRIRDRPPRLPRPRPRPGHFPRP here?
Answer: 0.0123

Question: For RRIRDRPPRLPRPRPRPGHIPRP, which “shrunken log2 fold change” value is on record?
Answer: -0.0814

Question: How did the “shrunken log2 fold change” value turn out when RRIRDRPPRLPRPRPRPGHRPRP was run?
Answer: -0.0741

Question: Which “shrunken log2 fold change” value does the source give for RRIRDRPPRLPRPRPRPGHWPRP here?
Answer: 0.315

Question: For RRIRDRPPRLPRPRPRPGIDPRP, which “shrunken log2 fold change” value is on record?
Answer: -0.245

Question: RRIRDRPPRLPRPRPRPGIEPRP was tested. Which “shrunken log2 fold change” value did it give?
Answer: 0.103

Question: Which “shrunken log2 fold change” value does the source give for RRIRDRPPRLPRPRPRPGILPRP here?
Answer: -0.197

Question: Which “shrunken log2 fold change” value does the source give for RRIRDRPPRLPRPRPRPGISPRP here?
Answer: 0.0115

Question: How did the “shrunken log2 fold change” value turn out when RRIRDRPPRLPRPRPRPGKIPRP was run?
Answer: -0.176

Question: Which “shrunken log2 fold change” value does the source give for RRIRDRPPRLPRPRPRPGKMPRP here?
Answer: 0.0346

Question: RRIRDRPPRLPRPRPRPGNDPRP was tested. Which “shrunken log2 fold change” value did it give?
Answer: 0.0652

Question: With RRIRDRPPRLPRPRPRPGPGPRP as the sequence, how does the “shrunken log2 fold change” value read?
Answer: 0.764

Question: With RRIRDRPPRLPRPRPRPGPKPRP as the sequence, how does the “shrunken log2 fold change” value read?
Answer: 0.386

Question: With RRIRDRPPRLPRPRPRPGPTPRP as the sequence, how does the “shrunken log2 fold change” value read?
Answer: 0.355

Question: With RRIRDRPPRLPRPRPRPGSQPRP as the sequence, how does the “shrunken log2 fold change” value read?
Answer: 0.0966

Question: How did the “shrunken log2 fold change” value turn out when RRIRDRPPRLPRPRPRPGSSPRP was run?
Answer: 0.0783

Question: How did the “shrunken log2 fold change” value turn out when RRIRDRPPRLPRPRPRPGTEPRP was run?
Answer: 0.974

Question: With RRIRDRPPRLPRPRPRPGTKPRP as the sequence, how does the “shrunken log2 fold change” value read?
Answer: -0.0282

Question: For RRIRDRPPRLPRPRPRPGVMPRP, which “shrunken log2 fold change” value is on record?
Answer: 0.521

Question: RRIRDRPPRLPRPRPRPGVNPRP was tested. Which “shrunken log2 fold change” value did it give?
Answer: 0.148

Question: RRIRDRPPRLPRPRPRPGVSPRP was tested. Which “shrunken log2 fold change” value did it give?
Answer: 0.158

Question: Which “shrunken log2 fold change” value does the source give for RRIRDRPPRLPRPRPRPGWHPRP here?
Answer: 0.27

Question: Which “shrunken log2 fold change” value does the source give for RRIRDRPPRLPRPRPRPGYGPRP here?
Answer: -0.0481

Question: For RRIRDRPPRLPRPRPRPHAVPRP, which “shrunken log2 fold change” value is on record?
Answer: 0.163

Question: With RRIRDRPPRLPRPRPRPHAYPRP as the sequence, how does the “shrunken log2 fold change” value read?
Answer: -0.218

Question: For RRIRDRPPRLPRPRPRPHCPPRP, which “shrunken log2 fold change” value is on record?
Answer: -0.191

Question: For RRIRDRPPRLPRPRPRPHCRPRP, which “shrunken log2 fold change” value is on record?
Answer: -0.123

Question: RRIRDRPPRLPRPRPRPHDLPRP was tested. Which “shrunken log2 fold change” value did it give?
Answer: -0.0733

Question: Which “shrunken log2 fold change” value does the source give for RRIRDRPPRLPRPRPRPHERPRP here?
Answer: 0.0603

Question: Which “shrunken log2 fold change” value does the source give for RRIRDRPPRLPRPRPRPHEYPRP here?
Answer: -0.01

Question: RRIRDRPPRLPRPRPRPHFHPRP was tested. Which “shrunken log2 fold change” value did it give?
Answer: -0.0477

Question: With RRIRDRPPRLPRPRPRPHHWPRP as the sequence, how does the “shrunken log2 fold change” value read?
Answer: 0.172

Question: With RRIRDRPPRLPRPRPRPHIKPRP as the sequence, how does the “shrunken log2 fold change” value read?
Answer: -0.598

Question: How did the “shrunken log2 fold change” value turn out when RRIRDRPPRLPRPRPRPHIMPRP was run?
Answer: -0.981

Question: For RRIRDRPPRLPRPRPRPHINPRP, which “shrunken log2 fold change” value is on record?
Answer: -0.683

Question: For RRIRDRPPRLPRPRPRPHITPRP, which “shrunken log2 fold change” value is on record?
Answer: -0.7

Question: With RRIRDRPPRLPRPRPRPHKLPRP as the sequence, how does the “shrunken log2 fold change” value read?
Answer: 0.00695

Question: RRIRDRPPRLPRPRPRPHKMPRP was tested. Which “shrunken log2 fold change” value did it give?
Answer: -0.293

Question: With RRIRDRPPRLPRPRPRPHKVPRP as the sequence, how does the “shrunken log2 fold change” value read?
Answer: -0.0568

Question: For RRIRDRPPRLPRPRPRPHLAPRP, which “shrunken log2 fold change” value is on record?
Answer: 0.302

Question: Which “shrunken log2 fold change” value does the source give for RRIRDRPPRLPRPRPRPHMCPRP here?
Answer: 0.0514

Question: For RRIRDRPPRLPRPRPRPHMHPRP, which “shrunken log2 fold change” value is on record?
Answer: -0.0478

Question: For RRIRDRPPRLPRPRPRPHMQPRP, which “shrunken log2 fold change” value is on record?
Answer: -0.368

Question: For RRIRDRPPRLPRPRPRPHMTPRP, which “shrunken log2 fold change” value is on record?
Answer: -0.0927

Question: For RRIRDRPPRLPRPRPRPHNVPRP, which “shrunken log2 fold change” value is on record?
Answer: 0.00884

Question: Which “shrunken log2 fold change” value does the source give for RRIRDRPPRLPRPRPRPHPEPRP here?
Answer: 0.004

Question: How did the “shrunken log2 fold change” value turn out when RRIRDRPPRLPRPRPRPHPTPRP was run?
Answer: 0.0176

Question: With RRIRDRPPRLPRPRPRPHRNPRP as the sequence, how does the “shrunken log2 fold change” value read?
Answer: -0.0138

Question: RRIRDRPPRLPRPRPRPHRRPRP was tested. Which “shrunken log2 fold change” value did it give?
Answer: -0.247

Question: How did the “shrunken log2 fold change” value turn out when RRIRDRPPRLPRPRPRPHSFPRP was run?
Answer: 0.0961

Question: Which “shrunken log2 fold change” value does the source give for RRIRDRPPRLPRPRPRPHSWPRP here?
Answer: 0.05

Question: With RRIRDRPPRLPRPRPRPHTGPRP as the sequence, how does the “shrunken log2 fold change” value read?
Answer: -0.0359

Question: With RRIRDRPPRLPRPRPRPHTHPRP as the sequence, how does the “shrunken log2 fold change” value read?
Answer: -0.0285

Question: RRIRDRPPRLPRPRPRPHVAPRP was tested. Which “shrunken log2 fold change” value did it give?
Answer: -0.0272

Question: How did the “shrunken log2 fold change” value turn out when RRIRDRPPRLPRPRPRPHVRPRP was run?
Answer: -0.12

Question: With RRIRDRPPRLPRPRPRPHWCPRP as the sequence, how does the “shrunken log2 fold change” value read?
Answer: -0.116

Question: With RRIRDRPPRLPRPRPRPHYEPRP as the sequence, how does the “shrunken log2 fold change” value read?
Answer: -0.0202

Question: Which “shrunken log2 fold change” value does the source give for RRIRDRPPRLPRPRPRPIARPRP here?
Answer: 0.199

Question: With RRIRDRPPRLPRPRPRPIDLPRP as the sequence, how does the “shrunken log2 fold change” value read?
Answer: -0.0817

Question: RRIRDRPPRLPRPRPRPIDNPRP was tested. Which “shrunken log2 fold change” value did it give?
Answer: 0.131

Question: RRIRDRPPRLPRPRPRPIFLPRP was tested. Which “shrunken log2 fold change” value did it give?
Answer: -0.205

Question: How did the “shrunken log2 fold change” value turn out when RRIRDRPPRLPRPRPRPIFPPRP was run?
Answer: 0.19

Question: How did the “shrunken log2 fold change” value turn out when RRIRDRPPRLPRPRPRPIGMPRP was run?
Answer: 0.0484

Question: For RRIRDRPPRLPRPRPRPIHPPRP, which “shrunken log2 fold change” value is on record?
Answer: -0.125

Question: Which “shrunken log2 fold change” value does the source give for RRIRDRPPRLPRPRPRPIHWPRP here?
Answer: -0.18
